This data set deals with FgU2AF23-His;GST-FgRbp1 (Fusarium graminearum PH-1;Fusarium graminearum PH-1). In words: pull-down. Conditions: scale: fold FgU2AF23-His bound vs FgU2AF23 alone.

With FgRPS20 exon1-intron1-exon2 RNA, the binding signal was determined as 1.6.

The values are drawn from PMC8113354.
